Measured values taken from the nanobody polyreactivity screen of Harvey et al. (2022).

Test: yeast display, Sf9 membrane polyspecificity reagent, FACS + sequencing; frameworks hold sequencing errors
In short: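 Sorting gates, low and high (top ~1%), were placed on anti-HA fluorescence to track expression and on streptavidin fluorescence to track reagent binding. A clone's polyreactivity label is taken from the gate it came out of. The reagent was 10% biotinylated, detergent-solubilized Sf9 membrane, applied for 1 hour at 4 °C to galactose-induced yeast display cells.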

| Sequence | polyreactivity (PSR sort gate) |
| --- | --- |
| QVQLVESGGGLVQAGGSLRLSCAASGRIFAHYAMGWYRQAPGKEREMVAAISRRGGSTYYAESVKGRFTISRDNAKNTVYLQMNRLKPEDTAVYYCNAVTRSSLSWFFGYDYWGQGTQVTVSS | high polyreactivity |
| QVQLVESGGGLVQAGGSLRLSCAASGRIFALYAMGGYRQAPGKERELVAAISIRAGSTYYADSAKGRFTISRDNAKNTVYLQMNSLKPEDTAVYYCATKGWVSTSYYYRPYGYWGQGTQVTVSS | high polyreactivity |
| QVQLVESGGGLVQAGGSLRLSCAASGRIFALYAMGWYRQAPGKERELVASINGSSGSTYYADSVKGRFTISRDTAKNTVYLQMNSLKPEDTAVYYCAKKYYGVKFYWGQGTQVTVSS | low polyreactivity |
| QVQLVESGGGLVQAGGSLRLSCAASGRIFANAMGWYRQAPGKERELVAAISTSGGRTYYADSVKGRFTISRDNAKNTVYLQMNSLKPEDTAVYYCAARPHTPPVTSGYNHWGQGTQVTVSS | high polyreactivity |
| QVQLVESGGGLVQAGGSLRLSCAASGRIFAPYAMGWYRQAPGKEREVVAGITRGGITNYADSVKGRFTISRDNAKNTVYLQMNSLKPEDTAVYYCATVVNRRGFYQYYYWGQGTQVTVSS | high polyreactivity |
| QVQLVESGGGLVQAGGSLRLSCAASGRIFAQNAMGWYRQAPRNERELVAGISYGGGRTYYADSVKGRFTISRDKAKNTVYLQMNSLKPEDTAVYYCAKAVNSPRKYQLGNGYWGQGTQVTVSS | high polyreactivity |
| QVQLVESGGGLVQAGGSLRLSCAASGRIFAQYAMGWYRQAPGKERELVAAISSGGNTYYADSVKGRFTISRDNAKNTVYLQMNSLKPEDTAVYYCAASSRRYLWGFDYWGQGTQVTVSS | low polyreactivity |
| QVQLVESGGGLVQAGGSLRLSCAASGRIFARNAMGWYRPEPGKERELVAGITWSTASTYYADSVKGRFTISLDNAKNTVYLQMNSLKPEDTAVYYCAADSYYYYDYWYVYLYDYWGQGTQVTVSS | high polyreactivity |
| QVQLVESGGGLVQAGGSLRLSCAASGRIFARNAMGWYRQAPGKERELVAAISSSGGTYYADSVKGRFTISRDNAKNTVYLQMNSLKPEDTAVYYCNARVRTQQRWVDYWGQGTQVTVSS | high polyreactivity |
| QVQLVESGGGLVQAGGSLRLSCAASGRIFARYAMGWYRQAPGKERELVAAISRGGGSTYYADSVKGRFTISRDNAKNTVYLQMNSLKPEDTAVYYCNRLSKQKQEFDYWGQGTQVTVSS | high polyreactivity |
| QVQLVESGGGLVQAGGSLRLSCAASGRIFARYTMGWYRQAPGKERDLVAAISRGGGTNYADSVKGRFTISRDNAKNTVYLQMNSLKPEDTAVSYCAADVSLVYPYSYRYYYWGQGTQVTVSS | low polyreactivity |
| QVQLVESGGGLVQAGGSLRLSCAASGRIFASNAMGWYRPAPGKERELVAAITTTGGSTYYADSVKGRFTISRDNAKNTVYLQMNSLKPEDTAVYYCAKRLGYRYPTYDYWGQGTQVTVSS | high polyreactivity |
| QVQLVESGGGLVQAGGSLRLSCAASGRIFASYAMGWYRQAPGKERELVASITRRGGSTYYADSVKGRFTISRDNAKNTVYLQMNSLKPPGSTYEGGYWGQGTQVTVSS | low polyreactivity |
| QVQLVESGGGLVQAGGSLRLSCAASGRIFASYVMGWYSQAPGKERELVAAISRSGVSTYYADSVKGRFTISRDNEKNTVYLQINSLIPEDTAVYYCATTRFPRSFQEFGYWGQGTQVNVSS | high polyreactivity |
| QVQLVESGGGLVQAGGSLRLSCAASGRIFATNAMGWYREAPGKERELVATITRSAGRTYYADSVKGRFTISRDNAKNSVYLQMNSLKPEDTAVYYCAASYWDTEPGYREYDYWGQGTQVTVSS | low polyreactivity |
| QVQLVESGGGLVQAGGSLRLSCAASGRIFATNAMGWYRQAPGKERELVAGIRRSGARTYYADSVKGRFTISRDNAKNTVYLQMYSLKPEDTAVYYCNASLFIEIYSFQYDDHFAEYGYWGQGTQVTVSS | high polyreactivity |
| QVQLVESGGGLVQAGGSLRLSCAASGRIFATNAMGWYRQAPGKERELVATITRSAGRTYYADSVKGRFTISRDNAKYTVYLQMNSLKPEDTAVYYCAASYWDTEPGYREYDYWGQGSQVTVSS | low polyreactivity |
